Experimental data taken from patent publication US7569341.
Several values for one entry are separate records, joined by “and”; a condition that tells them apart may be missing. Equal entries are not always repeated.

How the values were obtained:
[1] = target: mouse IgG whole molecules (Pierce) (mouse); assay: sandwich ELISA; capture AB on A-DNA well; IgG mixture; detected with aM-AP
[2] = target: mouse IgG whole molecules (Pierce) (mouse); assay: sandwich ELISA; capture BB on B-DNA well; IgG mixture; detected with aM-AP
[3] = target: bovine IgG whole molecules (reagent grade, Sigma) (bovine); assay: sandwich ELISA; capture CB on C-DNA well; IgG mixture; detected with aB-AP
[4] = target: mouse IgG whole molecules (Pierce) (mouse); assay: sandwich ELISA; biotinylated antibody directly on streptavidin well; IgG mixture; detected with aM-AP
[5] = target: dog IgG whole molecules (reagent grade, Sigma) (dog); assay: sandwich ELISA; capture AB on A-DNA well; IgG mixture; detected with aD-AP
[6] = target: bovine IgG whole molecules (reagent grade, Sigma) (bovine); assay: sandwich ELISA; capture BB on B-DNA well; IgG mixture; detected with aB-AP
[7] = target: bovine IgG whole molecules (reagent grade, Sigma) (bovine); assay: sandwich ELISA; capture AB on A-DNA well; IgG mixture; detected with aB-AP
[8] = target: dog IgG whole molecules (reagent grade, Sigma) (dog); assay: sandwich ELISA; capture CB on C-DNA well; IgG mixture; detected with aD-AP
[9] = target: dog IgG whole molecules (reagent grade, Sigma) (dog); assay: sandwich ELISA; capture BB on B-DNA well; IgG mixture; detected with aD-AP
[10] = target: bovine IgG whole molecules (reagent grade, Sigma) (bovine); assay: sandwich ELISA; biotinylated antibody directly on streptavidin well; IgG mixture; detected with aB-AP
[11] = target: mouse IgG whole molecules (Pierce) (mouse); assay: sandwich ELISA; capture CB on C-DNA well; IgG mixture; detected with aM-AP
[12] = target: dog IgG whole molecules (reagent grade, Sigma) (dog); assay: sandwich ELISA; capture BD on B-DNA well; IgG mixture; detected with aD-AP
[13] = target: dog IgG whole molecules (reagent grade, Sigma) (dog); assay: sandwich ELISA; biotinylated antibody directly on streptavidin well; IgG mixture; detected with aD-AP
[14] = target: bovine IgG whole molecules (reagent grade, Sigma) (bovine); assay: sandwich ELISA; capture AD on A-DNA well; IgG mixture; detected with aB-AP
[15] = target: dog IgG whole molecules (reagent grade, Sigma) (dog); assay: sandwich ELISA; capture AD on A-DNA well; IgG mixture; detected with aD-AP
[16] = target: mouse IgG whole molecules (Pierce) (mouse); assay: sandwich ELISA; capture AD on A-DNA well; IgG mixture; detected with aM-AP
[17] = target: dog IgG whole molecules (reagent grade, Sigma) (dog); assay: sandwich ELISA; capture CD on C-DNA well; IgG mixture; detected with aD-AP
[18] = target: mouse IgG whole molecules (Pierce) (mouse); assay: sandwich ELISA; capture BD on B-DNA well; IgG mixture; detected with aM-AP
[19] = target: mouse IgG whole molecules (Pierce) (mouse); assay: sandwich ELISA; capture CD on C-DNA well; IgG mixture; detected with aM-AP
[20] = target: bovine IgG whole molecules (reagent grade, Sigma) (bovine); assay: sandwich ELISA; capture BD on B-DNA well; IgG mixture; detected with aB-AP
[21] = target: bovine IgG whole molecules (reagent grade, Sigma) (bovine); assay: sandwich ELISA; capture CD on C-DNA well; IgG mixture; detected with aB-AP
[22] = target: dog IgG whole molecules (reagent grade, Sigma) (dog); assay: sandwich ELISA; capture CM on C-DNA well; IgG mixture; detected with aD-AP
[23] = target: mouse IgG whole molecules (Pierce) (mouse); assay: ELISA on mouse IgG-coated plate, A405, against controls A and B
[24] = target: bovine IgG whole molecules (reagent grade, Sigma) (bovine); assay: sandwich ELISA; capture AM on A-DNA well; IgG mixture; detected with aB-AP
[25] = target: dog IgG whole molecules (reagent grade, Sigma) (dog); assay: sandwich ELISA; capture BM on B-DNA well; IgG mixture; detected with aD-AP
[26] = target: mouse IgG whole molecules (Pierce) (mouse); assay: sandwich ELISA; capture AM on A-DNA well; IgG mixture; detected with aM-AP
[27] = target: mouse IgG whole molecules (Pierce) (mouse); assay: sandwich ELISA; capture BM on B-DNA well; IgG mixture; detected with aM-AP
[28] = target: dog IgG whole molecules (reagent grade, Sigma) (dog); assay: sandwich ELISA; capture AM on A-DNA well; IgG mixture; detected with aD-AP
[29] = target: bovine IgG whole molecules (reagent grade, Sigma) (bovine); assay: sandwich ELISA; capture BM on B-DNA well; IgG mixture; detected with aB-AP
[30] = target: bovine IgG whole molecules (reagent grade, Sigma) (bovine); assay: sandwich ELISA; capture CM on C-DNA well; IgG mixture; detected with aB-AP
[31] = target: mouse IgG whole molecules (Pierce) (mouse); assay: sandwich ELISA; capture CM on C-DNA well; IgG mixture; detected with aM-AP

Substance: biotinylated rabbit anti-bovine IgG (#B-7140), polyclonal rabbit IgG (antibody)
- absorbance reading (405 nm) [1]: 146
- absorbance reading (405 nm) [2]: 153
- absorbance reading (405 nm) [3]: 90
- absorbance reading (405 nm) [4]: 50 and 64 and 61
- absorbance reading (405 nm) [5]: 20
- absorbance reading (405 nm) [6]: 591
- absorbance reading (405 nm) [7]: 729
- absorbance reading (405 nm) [8]: 9
- absorbance reading (405 nm) [9]: 9
- absorbance reading (405 nm) [10]: 279 and 319 and 265
- absorbance reading (405 nm) [11]: 24

Substance: biotinylated rabbit anti-dog IgG (#B-7640), polyclonal rabbit IgG (antibody)
- absorbance reading (405 nm) [12]: 481
- absorbance reading (405 nm) [13]: 334 and 413 and 941
- absorbance reading (405 nm) [14]: 84
- absorbance reading (405 nm) [4]: 20 and 24 and 35
- absorbance reading (405 nm) [15]: 673
- absorbance reading (405 nm) [16]: 73
- absorbance reading (405 nm) [17]: 102
- absorbance reading (405 nm) [18]: 31
- absorbance reading (405 nm) [10]: 28 and 26 and 75
- absorbance reading (405 nm) [19]: 26
- absorbance reading (405 nm) [20]: 57
- absorbance reading (405 nm) [21]: 23

Substance: biotinylated rabbit anti-mouse IgG (#B-8520), polyclonal rabbit IgG (antibody)
- absorbance reading (405 nm) [22]: 5
- signal-to-noise ratio [23]: 60
- absorbance reading (405 nm) [4]: 177 and 189 and 186
- absorbance reading (405 nm) [24]: 45
- absorbance reading (405 nm) [25]: 4
- absorbance reading (405 nm) [26]: 533
- absorbance reading (405 nm) [27]: 346
- absorbance reading (405 nm) [28]: 8
- absorbance reading (405 nm) [29]: 30
- absorbance reading (405 nm) [10]: 15 and 31 and 19
- absorbance reading (405 nm) [30]: 8
- absorbance reading (405 nm) [31]: 49
